“And” between values parts separate entries of the source, which are not always exact repeats. Identical values can stand only once. Like-named read-outs stand apart in the source and are kept apart here.
Columns and labels:
[1] = target: HLA-E*01 on THP1 and U937 cells (human); experiment: mass spectrometry of peptide recovered from immunopurified HLA-E, THP1 cells
[2] = target: HLA-E*01 on THP1 and U937 cells (human); experiment: mass spectrometry of peptide recovered from immunopurified HLA-E, U937 cells
[3] = target: HLA-E*01 on THP1 and U937 cells (human)
[4] = target: HLA-A*02 on THP1 and U937 cells

B1: peptide … (from the HLA-A*02:01 gene) (peptide)
peptide: VMAPRTLVL
modifications: not checked
In the case of B1, the Peptide quantity (min. copies per cell) (copies per cell) [1] is reported as 155 and the Peptide quantity (min. copies per cell) (copies per cell) [2] is reported as 586.

B2: peptide … (from the HLA-A*03:01 and HLA-A*31:01 genes) (peptide)
peptide: VMAPRTLLL
modifications: not checked
B2 showed a Peptide quantity (min. copies per cell) (copies per cell) [3] of 302.

B3: peptide … (from the HLA-C*03:03 gene in THP1, the HLA-C*01:02 gene in U937) (peptide)
peptide: VMAPRTLIL
modifications: not checked
With B3 the Peptide quantity (min. copies per cell) (copies per cell) [1] was 70 and the Peptide quantity (min. copies per cell) (copies per cell) [2] was 877.

B4: peptide … (from the HLA-C*07:01 gene) (peptide)
peptide: VMAPRALLL
modifications: not checked
B4 gave a Peptide quantity (min. copies per cell) (copies per cell) [4] of 0 and a Peptide quantity (min. copies per cell) (copies per cell) [3] of 35.

B5: peptide … from Mycobacterium tuberculosis enoyl-ACP reductase (inhA) (peptide)
peptide: RLPAKAPLL
modifications: not checked
B5 was tested, and the Peptide quantity (min. copies per cell) (copies per cell) [3] was 52 and 22.

Reference: patent publication US20250270327A1
